Biological target: Mouse CT-1 fusion protein (mouse cardiotrophin-1 with a 34 amino acid N-terminal extension that encodes a portion of the herpes simplex virus glycoprotein D and a factor Xa cleavage site) (mouse) (UniProt Q60753)
Experiment: 125I-mouse CT-1 binding to soluble LIF receptor with added soluble gp130, Ni-NTA agarose

Chain of Mouse CT-1 fusion protein (mouse cardiotrophin-1 with a 34 amino acid N-terminal extension that encodes a portion of the herpes simplex virus glycoprotein D and a factor Xa cleavage site) (mouse) (Q60753 whole entry, the tested form may be a part): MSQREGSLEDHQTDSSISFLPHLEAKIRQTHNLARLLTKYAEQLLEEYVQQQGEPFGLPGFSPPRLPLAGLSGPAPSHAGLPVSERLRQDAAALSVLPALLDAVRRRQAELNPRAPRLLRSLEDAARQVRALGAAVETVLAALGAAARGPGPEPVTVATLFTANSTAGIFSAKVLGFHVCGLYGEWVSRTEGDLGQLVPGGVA

Q: How did the concentration of soluble gp130 required to increase the binding of CT-1 to the soluble LIF receptor turn out when “Soluble mouse gp130 (extracellular domain, amino acids 1-617, with a C-terminal tag of 6 histidine residues) (from UniProt Q00560 23-617) (receptor)” was run?
A: 100 nM

Source: patent US20040006018A1
